Data: patent publication US20030138848A1, “3D structure of polypeptides containing a TPR-structure motif with chaperone-binding function, crystals thereof and compounds for inhibition of said polypeptides” (priority 2000, published 2003)
Blank lines part the entries; values can stand above or below the molecule they belong to. Ends that are not written are not given here.

Legend:
[1] = target: T1, TPR1 domain of the Hop protein (Homo sapiens, UniProt P31948); experiment: Isothermal titration calorimetry, binding to TPR1 domain of Hop; details: ITC at 25° C.
T1 construct: Codons 1-118 (TPR1) and 223-352 (TPR2A) of human Hop protein were cloned; hexahistidine (TEV-cleavable) (N, cleaved yes); made in house; host or cells: E. coli BL21 (DE3)
T1 sequence (P31948 1-118): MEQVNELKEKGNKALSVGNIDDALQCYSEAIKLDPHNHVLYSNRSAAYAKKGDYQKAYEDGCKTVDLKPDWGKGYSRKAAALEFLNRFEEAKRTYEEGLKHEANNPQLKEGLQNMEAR
Description: (§1) FIG. 6 is a plotting of the thermo-dynamic analysis of the interaction of TPR1 and TPR2A with the C-terminal sequences of Hsp70 and Hsp90. […] The sequence […] corresponds with the 12 C-terminal amino acid residues of Hsc70. […] corresponds with the 12 C-terminal amino acid residues of Hsp90.
(§2) 40-50 aliquots of 5•μl peptide solution (7.5 mM-15 mM) were titrated at 25° C. by injection into a 1.36 ml TPR1 (TPR2A) solution (450•M-950•M) into the chamber. Alternatively, a solution of 3 mM TPR1 (TPR2A) in 180•M C70 (C90) solution was titrated in the chamber. […] Typically, the injections were continued past the saturation limits in order to be able to determine the heat of the ligand solution. After subtracting the solution heat, the calorimetric data was analysed, where an assessment software was used, which is provided by the manufacturer (version 2.9; MicroCal Software, Inc.).

[2] = target: T2, TPR2A domain of the Hop protein (Homo sapiens, UniProt P31948); experiment: Isothermal titration calorimetry, binding to TPR2A domain of Hop; details: ITC at 25° C.
T2 construct: Codons 1-118 (TPR1) and 223-352 (TPR2A) of human Hop protein were cloned; hexahistidine (TEV-cleavable) (N, cleaved yes); made in house; host or cells: E. coli BL21 (DE3)
T2 sequence (P31948 223-352): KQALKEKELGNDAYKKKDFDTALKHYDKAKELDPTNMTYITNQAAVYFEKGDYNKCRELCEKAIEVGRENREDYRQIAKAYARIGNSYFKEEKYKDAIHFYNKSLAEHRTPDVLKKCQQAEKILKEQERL
Description: as §1, §2

[3] = target: T3, TPR1 domain of human Hop protein (codons 1-118) (human, UniProt P31948 4-118); experiment: ITC, 25 °C
T3 construct: Expressed in E. coli with a removable N-terminal His6 tag, which was cleaved with TEV; It could not be checked that the entry is exactly residues 1-118; also called N-terminal TPR domain of Hop
T3 sequence (P31948 other isoform, or with tags, fused parts or gaps limits assumed): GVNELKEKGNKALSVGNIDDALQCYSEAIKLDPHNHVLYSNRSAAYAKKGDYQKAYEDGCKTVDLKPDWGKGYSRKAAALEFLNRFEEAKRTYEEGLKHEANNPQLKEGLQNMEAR
Description: as §1
(§3) 40-50 aliquots of 5•μl peptide solution (7.5 mM-15 mM) were titrated at 25° C. by injection into a 1.36 ml TPR1 (TPR2A) solution (450•M-950•M) into the chamber. Alternatively, a solution of 3 mM TPR1 (TPR2A) in 180•M C70 (C90) solution was titrated in the chamber. The peptides were dissolved in and the proteins were dialysed against the buffer G (25 mM, pH 7.5, 100 mM Kac, 5 mM MgAc₂). Typically, the injections were continued past the saturation limits in order to be able to determine the heat of the ligand solution. After subtracting the solution heat, the calorimetric data was analysed, where an assessment software was used, which is provided by the manufacturer (version 2.9; MicroCal Software, Inc.).

[4] = target: T4, TPR2A domain of human Hop protein (codons 223-352) (human, UniProt P31948 225-352); experiment: ITC, 25 °C
T4 construct: Expressed in E. coli, His6 tag cleaved with TEV; A selenomethionine-labelled form was made for MAD phasing; also called TRP2A
T4 sequence (P31948 other isoform, or with tags, fused parts or gaps limits assumed): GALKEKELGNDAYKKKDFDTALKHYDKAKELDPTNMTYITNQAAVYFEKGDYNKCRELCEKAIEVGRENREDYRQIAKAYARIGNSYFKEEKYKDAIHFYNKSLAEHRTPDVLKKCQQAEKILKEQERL
Description: as §1, §3

- binding to TPR1, result in words [1]: same affinities
Molecule: GSGGPTIEEVD [Hsc70 Dodekamer, peptide of the 12 C-terminal amino acid residues of Hsc70]

- stoichiometry N ([1]; binding to TPR1, listed as 25 kDa fragment of human Hsp70): ~1
Molecule: C70: C-terminal fragment of human Hsp70 (codons 382-641), 25 kDa domain

- binding to TPR1, result in words [1]: same affinities
Molecule: GASSGPTIEEVD [Hsp70 Dodekamer, C-terminal dodecamer of Hsp70]

- binding to TPR1, result in words [1]: weak, non-specific binding
- stoichiometry factor [2]: ~1
Molecule: C90: C-terminal domain of human Hsp90 (codons 625-732), 12 kDa fragment including dimerisation domain and authentic C-terminal

- Kd [3]: ~300 µM
- Kd [4]: 90 µM
Molecule: Ac-EEVD (also called EEVD peptide; EEVD motif) [tetrapeptide EEVD]

- fold increase in affinity (against the EEVD motif alone) [3]: 20 fold
Molecule: Ac-GPTIEEVD (also called structured octamer peptide) [Hsp70 peptide GPTIEEVD]

- Kd [3]: 15 to 20 µM
Molecule: Ac-PTIEEVD [C-terminal heptamer peptide of Hsc70]
